Among the data in patent US20210347913A1 (published 2021) are EC50 values, retold here.

What is called EC50 is the concentration that produces a half-maximal response. A higher EC50 goes with weaker potency.

Positions count from the first letter of the chain named.

The chains are these.
B1: 181 M9 (antibody)
chain: QGCHIGKRPVPCLWIGSSGGSGGSGGSGGGPLGLAGGSSGQVQLVESGGGVVQPGRSLRLSCAASGFTFSSYGMHWVRQAPGKGLEWVAVIWDDGSNKYYVDSVKGRFTISRDNSKNTLYLQMNSLRAEDTAVYYCARDDYYGSGSFNSYYGTDVWGQGTTVTVSSGGGGSGGGGSGGGGSEIVLTQSPATLSLSPGERATLSCRASQSVSIYLAWYQQKPGQAPRLLIYDASNRATGIPARFSGSGSGTDFTLTISSLEPEDFAVYYCQQRSNWPPFTFGPGTKVDISAAAFVPVFLPAKPTTTPAPRPPTPAPTIASQPLSLRPEACRPAAGGAVHTRGLDFACDIYIWAPLAGTCGVLLLSLVITLYCNHRNRSKRSRLLHSDYMNMTPRRPGPTRKHYQPYAPPRDFAAYRSRVKFSRSADAPAYQQGQNQLYNELNLGRREEYDVLDKRRGRDPEMGGKPRRKNPQEGLYNELQKDKMAEAYSEIGMKGERRRGKGHDGLYQGLSTATKDTYDALHMQALPPR
B2: 181 M13 (antibody)
chain: QGCTYPPRFHMHWLCGSSGGSGGSGGSGGGPLGLAGGSSGQVQLVESGGGVVQPGRSLRLSCAASGFTFSSYGMHWVRQAPGKGLEWVAVIWDDGSNKYYVDSVKGRFTISRDNSKNTLYLQMNSLRAEDTAVYYCARDDYYGSGSFNSYYGTDVWGQGTTVTVSSGGGGSGGGGSGGGGSEIVLTQSPATLSLSPGERATLSCRASQSVSIYLAWYQQKPGQAPRLLIYDASNRATGIPARFSGSGSGTDFTLTISSLEPEDFAVYYCQQRSNWPPFTFGPGTKVDIKSAAAFVPVFLPAKPTTTPAPRPPTPAPTIASQPLSLRPEACRPAAGGAVHTRGLDFACDIYIWAPLAGTCGVLLLSLVITLYCNHRNRSKRSRLLHSDYMNMTPRRPGPTRKHYQPYAPPRDFAAYRSRVKFSRSADAPAYQQGQNQLYNELNLGRREEYDVLDKRRGRDPEMGGKPRRKNPQEGLYNELQKDKMAEAYSEIGMKGERRRGKGHDGLYQGLSTATKDTYDALHMQALPPR
B3: 181 M7 (antibody)
chain: B2 chain with Y5M, P7Y, R8H, F9I, M11S, H12I, W13G
B4: 181 M3 (antibody)
chain: B2 chain with Y5M, R8S, F9P, H10R, M11S, H12K, W13V, L14I
B5: 181 M12 (antibody)
chain: B2 chain with Y5M, P7V, R8H, F9T, H10Y, M11S, H12Q
B6: 181 M4 (antibody)
chain: B2 chain with Y5F, P7N, R8T, F9T, H10M, M11Q, H12R, W13T, L14F
B7: 181 M14 (antibody)
chain: B2 chain with Y5H, P6V, P7A, R8Q, F9W, H10A, M11I, H12K, W13A, L14F
B8: 181 M8 (antibody)
chain: B2 chain with C3W, T4C, Y5T, P6I, R8S, F9S, H10M, M11S, H12I, W13R
B9: 181 M6 (antibody)
chain: B2 chain with C3V, T4C, Y5T, P6Y, R8P, F9A, M11R, H12T, W13R, L14F
B10: 181 M5 (antibody)
chain: B2 chain with P7S, R8W, F9V, H10A, M11Y, H12I, W13R, L14F
B11: 181 M10 (antibody)
chain: QGCYIGLRMVPCFHMGSSGGSGGSGGSGGGPLGLAGGSSGQVQLVESGGGVVQPGRSLRLSCAASGFTFSSYGMHWVRQAPGKGLEWVAVIWDDGSNKYYVDSVKGRFTISRDNSKNTLYLQMNSLRAEDTAVYYCARDDYYGSGSFNSYYGTDVWGQGTTVTVSSGGGGSGGGGSGGGGSEIVLTQSPATLSLSPGERATLSCRASQSVSIYLAWYQQKPGQAPRLLIYDASNRATGIPARFSGSGSGTDFTLTISSLEPEDFAVYYCQQRSNWPPFTFGPGTKVDIKSAAAFVPVFLPAKPTTTPAPRPPTPAPTIASQPLSLRPEACRPAAGGAVHTRGLDFACDIYIWAPLAGTCGVLLLSLVITLYCNHRNRSKRSRLLHSDYMNMTPRRPGPTRKHYQPYAPPRDFAAYRSRVKFSRSADAPAYQQGQNQLYNELNLGRREEYDVLDKRRGRDPEMGGKPRRKNPQEGLYNELQKDKMAEAYSEIGMKGERRRGKGHDGLYQGLSTATKDTYDALHMQALPPR
B12: 181 M11 (antibody)
chain: B2 chain with Y5M, P7S, R8H, F9A, H10V, M11A, H12S, W13F

The first assay addresses T1, PTK7 on PTK7 positive cell line SaOS-2 (osteosarcoma) (UniProt Q13308 31-1070).
T1 chain: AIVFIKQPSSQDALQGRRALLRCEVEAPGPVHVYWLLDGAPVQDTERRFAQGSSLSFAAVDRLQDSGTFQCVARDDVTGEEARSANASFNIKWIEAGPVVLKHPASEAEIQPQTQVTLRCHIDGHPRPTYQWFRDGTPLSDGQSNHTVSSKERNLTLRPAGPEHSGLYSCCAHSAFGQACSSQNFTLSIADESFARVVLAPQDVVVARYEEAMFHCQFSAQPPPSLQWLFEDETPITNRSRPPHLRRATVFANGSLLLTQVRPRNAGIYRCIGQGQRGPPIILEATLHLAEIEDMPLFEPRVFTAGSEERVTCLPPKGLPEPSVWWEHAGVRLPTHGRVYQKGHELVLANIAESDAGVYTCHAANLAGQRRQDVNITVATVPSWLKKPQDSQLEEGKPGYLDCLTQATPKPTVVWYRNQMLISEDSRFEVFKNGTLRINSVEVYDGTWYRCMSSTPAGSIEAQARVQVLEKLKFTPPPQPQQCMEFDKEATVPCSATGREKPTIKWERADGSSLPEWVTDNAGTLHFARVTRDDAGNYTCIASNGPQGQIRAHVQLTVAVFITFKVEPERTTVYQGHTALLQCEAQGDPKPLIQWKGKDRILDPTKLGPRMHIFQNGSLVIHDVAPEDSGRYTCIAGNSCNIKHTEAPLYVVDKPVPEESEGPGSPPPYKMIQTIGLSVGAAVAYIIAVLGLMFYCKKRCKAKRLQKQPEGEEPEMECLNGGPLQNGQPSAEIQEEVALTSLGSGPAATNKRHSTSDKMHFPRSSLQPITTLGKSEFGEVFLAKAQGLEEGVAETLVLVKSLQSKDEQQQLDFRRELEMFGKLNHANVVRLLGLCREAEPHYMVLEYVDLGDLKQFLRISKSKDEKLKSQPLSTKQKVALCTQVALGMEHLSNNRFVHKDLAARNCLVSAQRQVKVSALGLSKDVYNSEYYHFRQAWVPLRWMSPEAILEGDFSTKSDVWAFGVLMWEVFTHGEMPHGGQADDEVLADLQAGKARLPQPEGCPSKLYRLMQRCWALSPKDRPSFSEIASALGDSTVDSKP
Nature of the assay: FACS binding SaOS-2. For orientation: In flow cytometry, cells or beads pass a laser one at a time.
For B1, a half-maximal response (EC50) required 0.141 µM.
Still for that read-out and setting: the figure for B2 is 0.0409 µM; for B3 it is 0.119 µM; for B4 it is 0.225 µM.
Still for that read-out and setting: next, B5: 0.0938 µM; B6: 0.0167 µM.
The molecule B7 yielded an EC50 of 0.0688 µM.
Same read-out and setting: the figure for B8 is 0.101 µM; for B9 it is 0.0305 µM.
B10 showed an EC50 of 0.0299 µM.
Molecule B11 displayed an EC50 of 1.35 µM.
The same measure, in the same setting: the figure for B12 is 0.222 µM.

The target in another assay is T1, PTK7 on PTK7 positive cell line SaOS-2 …. Nature of the assay: FACS binding SaOS-2; -MMP14.
In the case of B2, a half-maximal effect (EC50) was put at 0.0586 µM. In other words, the double-digit nanomolar range.
Still for that read-out and setting: the figure for B4 is 0.406 µM; for B6 it is 0.0208 µM.
The same measure, in the same setting: next, B8: 0.0969 µM; B11: 0.434 µM.

A further assay shares this target. As to the kind of experiment: FACS binding SaOS-2; +MMP14.
As to B2, the midpoint of the response, the EC50, lay at 0.00038 µM.
Same read-out and setting: the figure for B4 is 0.00095 µM.
The same measure, in the same setting: the figure for B6 is 0.00041 µM.
The same measure, in the same setting: next, B8: 0.0008 µM.
In turn, B11 had a concentration for a half-maximal effect (EC50) of 0.00049 µM.
